Measured values taken from US20170066829A1 (published 2017).

Target: HER2 molecule (antigen of the affinity ELISA of FIG. 4) (UniProt P04626 23-652, limits assumed)
Test: ELISA with dilutions of HRP-conjugated Hersintuzumab, sigmoidal OD 450 nm curves

Ka: 6e+08 M⁻¹
B1: Hersintuzumab (antibody, V domains shown)
VH: EVKLVESGGGLVKPGGSLRLSCATSGFSFSSYYMYWVRQAPGKRLEWVAYISSGSEIYYSDSVKGRFTISRDSAKNTLYLQMNSLRAEDTAVYYCARLGDDGMDVWGQGTTVTVSS
VL: DIVMTQSPSSLSASVGDRVTITCRASQNVRTAVAWFQQKPGKAPKALIYLASNRHTGVPDRFTGSGSGTEFTLTISNLQPEDFATYFCLQHNSYPLTFGGGTKVEIK
notes: also called humanized anti-HER2 antibody; humanized monoclonal anti-HER2 antibody
